Data on four molecules can be found in PMC12546588 (Nature Communications, 2025).

The series “cryo-EM structure” deals with the molecule itself. As to the kind of experiment: cryo-EM structure.
Series [1] concerns the target human TRPC3 channel (hTRPC3), WT full length, tetramer in nanodiscs (human, UniProt Q13507). The series can be described thus: cryo-EM structure.

B1: human TRPC3 channel (hTRPC3), WT full length, tetramer in nanodiscs (natural protein, UniProt Q13507 86-921, looked up)
chain: MREKGRRQAVRGPAFMFNDRGTSLTAEEERFLDAAEYGNIPVVRKMLEESKTLNVNCVDYMGQNALQLAVGNEHLEVTELLLKKENLARIGDALLLAISKGYVRIVEAILNHPGFAASKRLTLSPCEQELQDDDFYAYDEDGTRFSPDITPIILAAHCQKYEVVHMLLMKGARIERPHDYFCKCGDCMEKQRHDSFSHSRSRINAYKGLASPAYLSLSSEDPVLTALELSNELAKLANIEKEFKNDYRKLSMQCKDFVVGVLDLCRDSEEVEAILNGDLESAEPLEVHRHKASLSRVKLAIKYEVKKFVAHPNCQQQLLTIWYENLSGLREQTIAIKCLVVLVVALGLPFLAIGYWIAPCSRLGKILRSPFMKFVAHAASFIIFLGLLVFNASDRFEGITTLPNITVTDYPKQIFRVKTTQFTWTEMLIMVWVLGMMWSECKELWLEGPREYILQLWNVLDFGMLSIFIAAFTARFLAFLQATKAQQYVDSYVQESDLSEVTLPPEIQYFTYARDKWLPSDPQIISEGLYAIAVVLSFSRIAYILPANESFGPLQISLGRTVKDIFKFMVLFIMVFFAFMIGMFILYSYYLGAKVNAAFTTVEESFKTLFWSIFGLSEVTSVVLKYDHKFIENIGYVLYGIYNVTMVVVLLNMLIAMINSSYQEIEDDSDVEWKFARSKLWLSYFDDGKTLPPPFSLVPSPKSFVYFIMRIVNFPKCRRRRLQKDIEMGMGNSKSRLNLFTQSNSRVFESHSFNSILNQPTRYQQIMKRLIKRYVLKAQVDKENDEVNEGELKEIKQDISSLRYELLEDKSQATEELAILIHKLSEKLNPSMLRCE
Usually stoichiometry N stands for the number of molecules, sites or subunits per partner or assembly. Consider B1, for which the “stoichiometry N” value in “cryo-EM structure” was 4 subunits.

B2: Nanobody 1-94 (VHH)
VHH: QVQLQESGGGSVQSGGSLRLSCAASGYTYSYSGYCMGWFRQAPGKEREGVATIDGAGNTKYADSVKGRFTISRDNAKKTLYLQMNSLKPEDTAMYYCAARVYSYSSDVDCRPSFTTRFPYSGQGTQVTV
With B2, the “stoichiometry N” value in series [1] was 4 nanobody molecules per hTRPC3 tetramer.

B3: Nanobody 3-37 (VHH)
VHH: QVQLQESGGGSVQSGGSLRLSCAASGYTYSRSCLGWFRQAPGKERERVATIDSDGSTSYADSVKGRFTISQDNAKNTLYLQMNSLKSEDTAMYYCASKYGSRCQNSLGYMYRGQGTQVTVSS
As to B3, in series [1], the “stoichiometry N” value was 2 nanobody molecules per hTRPC3 tetramer.

B4: Nanobody 1-25 (VHH)
VHH: QVQLQESGGGSVQSGGSLRLSCAASGDKNYYMGWFRQAPGKEREGVAAIKSDGETRYADSSVTGRFTISQDNAKKTLYLQMTSLKPEDTAMYYCAADRYIGTRWKYVRPEDYSYWGQGTQVTVSS
In the case of B4, the “stoichiometry N” value in series [1] is 4 nanobody molecules per hTRPC3 tetramer.
